From the supplement of paper PMC10724198
± gives the standard deviation of the averaged measurements.

What follows are sequences tested on Saccharomyces cerevisiae (assay: protein stability index of tFT-peptide fusion (C-terminal peptide) (PSI (0-1 scale)); higher = more stable (slower turnover)). Settings: genetic background: wild type; temperature: 30 C.
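Further: PSI is a weighted mean of sequencing reads over stability bins, variants kept only with over 10 reads, mCherry proximal and sfGFP distal, peptide attached via GGGS linker.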

| Sequence | protein stability index |
| --- | --- |
| PPPFSPPSDLPL | 0.601 ± 0.041 |
| PPPGPPPPPPYP | 0.656 ± 0.12 |
| PPPGPPSAPPPH | 0.706 ± 0.047 |
| PPPGPRPPSRSN | 0.581 ± 0.022 |
| PPPHAARSLFSL | 0.733 ± 0.098 |
| PPPHATPAPSPL | 0.706 ± 0.045 |
| PPPHPGFHLSSP | 0.673 ± 0.088 |
| PPPHPKPPPAGH | 0.62 ± 0.069 |
| PPPHPPTPLPPT | 0.701 ± 0.018 |
| PPPHSPSPTPHW | 0.713 ± 0.016 |
| PPPHSSPPPSPP | 0.693 ± 0.069 |
| PPPHTPLPPLAP | 0.744 ± 0.05 |
| PPPLGPPPPSSL | 0.774 ± 0.072 |
| PPPLLCPSSAPP | 0.783 ± 0.087 |
| PPPLPALRPPSH | 0.7193 ± 0.0013 |
| PPPLPLVPPSPP | 0.651 ± 0.033 |
| PPPLPPAPPPFP | 0.698 ± 0.017 |
| PPPLPPFPPAPP | 0.642 ± 0.012 |
| PPPLPPPCSAPP | 0.736 ± 0.012 |
| PPPLPPPSLVSF | 0.6741 ± 0.0051 |
| PPPLPPSIPLPL | 0.743 ± 0.031 |
| PPPLSPPPPPRP | 0.6643 ± 0.0031 |
| PPPLSVPVPPLS | 0.68 ± 0.021 |
| PPPPAPPAPPLR | 0.732 ± 0.056 |
| PPPPAQGRRRPV | 0.703 ± 0.023 |
| PPPPIRRPASHL | 0.76 ± 0.058 |

| Sequence | protein stability index |
| --- | --- |
| PPPPLAPLPPAS | 0.608 ± 0.12 |
| PPPPLAVSPTSP | 0.716 ± 0.039 |
| PPPPLPFSPPDP | 0.681 ± 0.044 |
| PPPPLPHPPAAS | 0.7 ± 0.02 |
| PPPPLPPLTPLS | 0.6512 ± 0.0037 |
| PPPPLPPPTLPT | 0.726 ± 0.11 |
| PPPPLSPPPPRP | 0.693 ± 0.05 |
| PPPPLSTVPPPP | 0.811 ± 0.019 |
| PPPPPAIPRRRT | 0.678 ± 0.033 |
| PPPPPAPTTSVP | 0.6829 ± 0.002 |
| PPPPPHAEAVSR | 0.59 ± 0.029 |
| PPPPPLHPPPPL | 0.605 ± 0.056 |
| PPPPPLLAPSPL | 0.671 ± 0.07 |
| PPPPPLLPSPSP | 0.696 ± 0.05 |
| PPPPPLPPPPPT | 0.696 ± 0.087 |
| PPPPPLRPPRSP | 0.767 ± 0.013 |
| PPPPPPASPPSP | 0.71 ± 0.015 |
| PPPPPPLPLPLS | 0.711 ± 0.084 |
| PPPPPPLTPTFP | 0.6601 ± 0.0036 |
| PPPPPPNAPPSS | 0.647 ± 0.03 |
| PPPPPPPLTSLP | 0.7175 ± 0.0013 |
| PPPPPPPPHPPP | 0.559 ± 0.0068 |
| PPPPPPPPHSPP | 0.672 ± 0.035 |
| PPPPPPPRPSFP | 0.696 ± 0.041 |
| PPPPPPSLPLPP | 0.6709 ± 0.0044 |
| PPPPPRPPYPIP | 0.735 ± 0.011 |

| Sequence | protein stability index |
| --- | --- |
| PPPPPSAPAPLH | 0.6963 ± 0.0021 |
| PPPPPSPAPGIP | 0.66 ± 0.055 |
| PPPPPSSFPFPP | 0.656 ± 0.049 |
| PPPPPTFPPPRS | 0.817 ± 0.025 |
| PPPPPTPLPSTL | 0.727 ± 0.038 |
| PPPPPTPPSSTP | 0.713 ± 0.068 |
| PPPPPTPTPPYR | 0.6952 ± 0.0014 |
| PPPPRLPARLAP | 0.77 ± 0.16 |
| PPPPRPPFPRAF | 0.698 ± 0.0051 |
| PPPPRPPPLPTR | 0.703 ± 0.021 |
| PPPPRPPRPPPA | 0.671 ± 0.12 |
| PPPPSLPPPPRS | 0.693 ± 0.035 |
| PPPPSSLPPPPC | 0.691 ± 0.012 |
| PPPPSSPFPHAS | 0.697 ± 0.03 |
| PPPPSSPPHLPF | 0.651 ± 0.018 |
| PPPPVPLPPPRL | 0.713 ± 0.021 |
| PPPPVPPPPSPL | 0.6974 ± 0.0036 |
| PPPPYARHTALI | 0.691 ± 0.032 |
| PPPQSPPLLLVL | 0.548 ± 0.021 |
| PPPRFRLSSFPT | 0.701 ± 0.021 |
| PPPRPGFCLFLP | 0.674 ± 0.05 |
| PPPRPRYLHPPS | 0.719 ± 0.035 |
| PPPRRPPPRLLS | 0.705 ± 0.11 |
| PPPSAPLPPLPL | 0.714 ± 0.019 |
| PPPSHLGSLDPL | 0.661 ± 0.02 |
| PPPSPPLPPHSP | 0.7619 ± 0.0011 |

| Sequence | protein stability index |
| --- | --- |
| PPPSPPRPLLPV | 0.701 ± 0.023 |
| PPPSSELTFLHY | 0.797 ± 0.067 |
| PPPTPLLLSHLL | 0.709 ± 0.068 |
| PPPTPPRPPSPP | 0.656 ± 0.015 |
| PPPTPTPPSQPT | 0.681 ± 0.012 |
| PPPVPPPPAHTP | 0.681 ± 0.091 |
| PPPVPPPWPSPF | 0.661 ± 0.047 |
| PPPYRPPPSSPG | 0.661 ± 0.04 |
| PPQLSRHVSTRP | 0.754 ± 0.0084 |
| PPQPRSHPPHLS | 0.594 ± 0.086 |
| PPQSPPPGSPPP | 0.649 ± 0.013 |
| PPRASPFPTPPP | 0.579 ± 0.04 |
| PPRFCPPLAPSV | 0.681 ± 0.0095 |
| PPRFLPFPPLPL | 0.75493 ± 0.00067 |
| PPRLVPPTPPSS | 0.65 ± 0.064 |
| PPRPPAALPRLL | 0.714 ± 0.07 |
| PPRPPLSPPRSA | 0.718 ± 0.014 |
| PPRPRVLPYPPL | 0.746 ± 0.028 |
| PPRQLPFLAPSP | 0.709 ± 0.046 |
| PPRRPSPPSPHP | 0.67196 ± 0.00055 |
| PPRSPPSLPFPP | 0.634 ± 0.0066 |
| PPRTHRPPTPPQ | 0.7212 ± 0.0063 |
| PPSLCPPPSLLF | 0.733 ± 0.013 |
| PPSLLLCPLFTS | 0.602 ± 0.075 |
| PPSLPLLLPPCT | 0.649 ± 0.019 |
| PPSLPPLFLRAP | 0.667 ± 0.0091 |

| Sequence | protein stability index |
| --- | --- |
| PPSLPPLPFSTP | 0.7352 ± 0.0065 |
| PPSLPPLSPPLA | 0.736 ± 0.02 |
| PPSNAFEETLRT | 0.7 ± 0.015 |
| PPSPLPQPRPQT | 0.695 ± 0.014 |
| PPSPPPPPASPP | 0.6805 ± 0.0015 |
| PPSPPPVRPHPP | 0.587 ± 0.068 |
| PPSPPSPPPSAP | 0.704 ± 0.0093 |
| PPSPRLFRFLPP | 0.631 ± 0.074 |
| PPSPSPPSPPPP | 0.656 ± 0.007 |
| PPSPSPPSPPSP | 0.654 ± 0.032 |
| PPSQRPPPPPPL | 0.704 ± 0.023 |
| PPSRPLSVLPPP | 0.6863 ± 0.0055 |
| PPSSPALPSDTP | 0.694 ± 0.013 |
| PPSSPCLRPSPP | 0.683 ± 0.037 |
| PPSSPPPTIPAH | 0.642 ± 0.029 |
| PPSSRPPVRSPP | 0.6903 ± 0.0014 |
| PPSSSPPHTPFP | 0.6557 ± 0.0011 |
| PPSTPPPSPPTP | 0.725 ± 0.072 |
| PPSTRPYRLFPL | 0.682 ± 0.048 |
| PPSVPTPCPVPI | 0.696 ± 0.067 |
| PPSWTPPSPLPL | 0.727 ± 0.06 |
| PPTFPPHSYLHP | 0.652 ± 0.043 |
| PPTLPFSARSPP | 0.659 ± 0.036 |
| PPTLPVPSPSPL | 0.822 ± 0.25 |
| PPTPHPSTPALP | 0.714 ± 0.075 |
| PPTPPPPSPLAP | 0.73 ± 0.034 |

| Sequence | protein stability index |
| --- | --- |
| PPTSPPLAPPPL | 0.643 ± 0.062 |
| PPTVSRPPHLPT | 0.69 ± 0.048 |
| PPVLQPLLALAL | 0.535 ± 0.015 |
| PPVLVPAHHRPD | 0.651 ± 0.014 |
| PPVPDSFAAFLR | 0.743 ± 0.089 |
| PPVPPPHASPAP | 0.709 ± 0.05 |
| PPVPPPLPSPPP | 0.712 ± 0.025 |
| PPVRRPAHATTG | 0.722 ± 0.038 |
| PPVSHPSPFPLP | 0.653 ± 0.0095 |
| PPWPLVVQPSPP | 0.703 ± 0.041 |
| PPYAPSPSPPSH | 0.6936 ± 0.0029 |
| PPYPLHPARPPY | 0.702 ± 0.036 |
| PPYPPETPPVHP | 0.724 ± 0.037 |
| PPYPPGLPSLPP | 0.689 ± 0.043 |
| PQGAYLFTSTCI | 0.753 ± 0.054 |
| PQGGREYIYSPQ | 0.718 ± 0.019 |
| PQHFARSITPPP | 0.64 ± 0.097 |
| PQPPFTHGLIPS | 0.706 ± 0.023 |
| PQPPLYPPPSLP | 0.675 ± 0.036 |
| PQPPPRSPPSYL | 0.75 ± 0.049 |
| PQSKWQWHSGLT | 0.692 ± 0.065 |
| PQSPVCDLESRL | 0.666 ± 0.11 |
| PRAHIDWALTVM | 0.548 ± 0.065 |
| PRALLPPSPPSP | 0.635 ± 0.09 |
| PRAPQNEHQTKG | 0.667 ± 0.059 |
| PRASSPPPPTAS | 0.666 ± 0.024 |

| Sequence | protein stability index |
| --- | --- |
| PRCCDIEIESGR | 0.68 ± 0.027 |
| PRDSLMRLDCRL | 0.691 ± 0.022 |
| PRDSPPPPPPPP | 0.699 ± 0.027 |
| PREFLVYDGVRV | 0.6382 ± 0.0059 |
| PRFPLPLPPPSP | 0.7356 ± 0.0037 |
| PRHGSPASPRPP | 0.636 ± 0.086 |
| PRHPLAPLPLPS | 0.724 ± 0.026 |
| PRIGEARNLCYK | 0.6816 ± 0.006 |
| PRIGPAPLPRLS | 0.714 ± 0.043 |
| PRKTRSTTTRKS | 0.593 ± 0.038 |
| PRLHRRPAYTFI | 0.606 ± 0.022 |
| PRLLPSTCEREV | 0.618 ± 0.066 |
| PRLLSTYAGSKW | 0.723 ± 0.012 |
| PRLPLPSRPSPR | 0.655 ± 0.064 |
| PRLPSPPGAPPP | 0.726 ± 0.011 |
| PRLSPLPPPSFP | 0.628 ± 0.045 |
| PRNPLFSPPLPD | 0.752 ± 0.0099 |
| PRPGPPPPPPSP | 0.713 ± 0.035 |
| PRPLALPFCKLW | 0.808 ± 0.14 |
| PRPLPAPPQRNL | 0.628 ± 0.017 |
| PRPPLPHQRPRS | 0.746 ± 0.13 |
| PRPPRSPLPSSL | 0.7 ± 0.041 |
| PRPQTSAHAETG | 0.644 ± 0.022 |
| PRPRPRSGWILL | 0.696 ± 0.036 |
| PRRFPPPSPSPP | 0.713 ± 0.085 |
| PRRPAFPPPGLP | 0.705 ± 0.072 |

| Sequence | protein stability index |
| --- | --- |
| PRRQDSRLEQPD | 0.713 ± 0.0077 |
| PRRYPPPSPRTS | 0.704 ± 0.016 |
| PRSLSLLPPSSP | 0.734 ± 0.037 |
| PRSPPPPAQPFV | 0.705 ± 0.042 |
| PRSSPPPPPPPP | 0.681 ± 0.035 |
| PRSSSPPPRSPP | 0.669 ± 0.016 |
| PRTPPQQEPRRP | 0.709 ± 0.054 |
| PRVLPFPSFLFF | 0.657 ± 0.022 |
| PRVPSSPNPPPI | 0.805 ± 0.025 |
| PRWYVSFRTDDW | 0.709 ± 0.15 |
| PSALGYFRWAVG | 0.68 ± 0.042 |
| PSAPRPSPPALP | 0.855 ± 0.11 |
| PSAPSLPPFFPP | 0.644 ± 0.04 |
| PSDLFGIQQSLL | 0.764 ± 0.018 |
| PSEPGPPRVSTP | 0.647 ± 0.08 |
| PSFFLLRVFVPS | 0.524 ± 0.0061 |
| PSFSPLPLPSIV | 0.728 ± 0.039 |
| PSGAHLAHLLWL | 0.719 ± 0.053 |
| PSGGAVEGMGGE | 0.668 ± 0.059 |
| PSGHQAPEMQYL | 0.667 ± 0.022 |
